Test [1] deals with intact Tlr4 protein, endogenous in RAW 264.7 macrophages (mouse) (UniProt Q9QUK6). The test can be described thus: cell-based or functional assay.
The target of test [2] is flag-tagged Tlr4^Lps-d, residues 22-835 (P712H), expressed in RAW 264.7 cells (mouse) (UniProt Q9QUK6). The test can be described thus: saturation isotherm of 125I-M2 on transfected RAW 264.7 cells, nonlinear regression.
Test [3] shares this target. The test can be described thus: saturation isotherm of 125I-M2 (50 ng/ml to 20 ug/ml) on transfected RAW 264.7 cells.
In test [4] the target is flag-tagged Tlr4^Lps-n cytoplasmic domain construct, residues 630-835 (mouse) (UniProt Q9QUK6). The test can be described thus: equilibrium specific binding of M2 at a fixed concentration to RAW 264.7 clones, mean of 7 clones.
Test [5] has as its target flag-tagged Tlr4^Lps-d cytoplasmic domain construct, residues 630-835 (P712H) (mouse) (UniProt Q9QUK6). The test can be described thus: equilibrium specific binding of M2 at a fixed concentration to RAW 264.7 clones, mean of 8 clones.
The target in test [6] is flag-tagged Tlr4 ectodomain construct, residues 22-660 (no cytoplasmic domain) (mouse) (UniProt Q9QUK6). The test can be described thus: equilibrium specific binding of M2 at a fixed concentration to RAW 264.7 clones, mean of 9 clones.
In test [7] the target is flag-tagged Tlr4^Lps-d, residues 22-835 (P712H), expressed in RAW 264.7 cells (mouse) (UniProt Q9QUK6). Kind of test: equilibrium specific binding of M2 at a fixed concentration to RAW 264.7 clones, mean of 10 clones.
In test [8] the target is flag-tagged Tlr4^Lps-n, residues 22-835, expressed in RAW 264.7 cells (mouse) (UniProt Q9QUK6). The test is described as above.
In another test the test system is RAW 264.7 cells. Kind of test: LPS-induced TNF production (EC50 shift) in RAW 264.7 clones expressing Tlr4 constructs, L-929 cytotoxicity assay. In kind it is cell-based, murine. The conditions noted are these: for rightward EC50 shift (inhibition of LPS signaling): membrane-associated cytoplasmic domain constructs lacking the entire ectodomain; for leftward shift of the LPS EC50 curve (augmentation of the LPS response): over-expression in RAW 264.7, TNF production; for effect on LPS signaling (in words): over-expression of truncated constructs in RAW 264.7 cells. The procedure: FIG. 15C. Composite analysis of the shift in EC50 caused by expression of Tlr4^Lps-n and Tlr4^Lps-d in RAW 264.7 cells. Each point represents an EC50 determination performed on ten independent clones at the stated LPS concentration. For each clone, four replicate assays were performed at each concentration. […] Transfected macrophages were plated in 24 well plates at a density of 5×10^5 cells per well, and covered with 1.0 ml of DMEM supplemented with 10% FBS. LPS was added to each well at the concentration indicated. After 15 hours of incubation the medium was harvested, and TNF concentration was assayed in the standard L-929 cytotoxicity system^36, using cycloheximide at a concentration of 100·g/ml to potentiate killing. After 15 hours of exposure to diluted macrophage medium or to mouse TNF applied at a range of 8 standard concentrations, the number of viable cells was determined by staining with crystal violet. A standard curve relating % cytotoxicity to TNF concentration (not shown) was generated using Prism 3.0, and was based on an assumption of sigmoidicity. Variance among replicate samples was typically beneath 5% of the mean, and departures of individual samples from the sigmoid plot were typically smaller still. Linear estimates of TNF concentration in unknown samples were based on non-linear interpolation from the standard curve (also performed using Prism 3.0). The curves shown were generated assuming sigmoidicity of response with variable slope for each curve, and further assigning a maximum response value of 1760 pg TNF, which yielded an optimal fit for the most responsive curve. Error bars indicate standard deviation among clones at each LPS concentration. Log EC50 values and standard error values are shown in the inset table.
FIG. 15D. Shifts of the log EC50, determined for individual clones. A more conservative approach, in which log EC50 values were determined for individual clones transfected with vector alone, or with the Tlr4^Lps-n or Tlr4^Lps-d constructs. The log EC50 data were then represented as a scatter plot, in which each point represents the log EC50 determination of a single clone (confidence limits not shown for the sake of simplicity), and is derived from 24 separate TNF assays performed on samples stimulated over a 10^4-fold range of LPS concentration (100 pg/ml to 1·g/ml, as well as an unstimulated control). In most instances, two determinations of log EC50 were made independently for each clone. The mean and standard error of each cluster is shown in the inset, together with p values defining the likelihood that the EC50 displacements are attributable to chance. Data were analyzed by means of a one-tailed t test, using Welch's correction for unequal variance.
In order to directly examine the role of Tlr4 as a transducer of the LPS signal in macrophages, the inventors expressed the normal mouse protein—and various mutant forms—in RAW 264.7 macrophages have been expressed (FIG. 14; Table VIII). These cells of murine origin are highly responsive to LPS, and are known to express the Tlr4 mRNA (Poltorak et al, 1998b). Unlike cell lines of non-myeloid origin (i.e., 293 cells or CHO cells), they express all proteins required for the elicitation of a biologically relevant response to LPS (e.g., TNF production). As such, they may be used to determine whether Tlr4 is a limiting factor in the initiation of an LPS signal, and to examine the mechanism by which the Tlr4^Lps-d allele exerts its dominant inhibitory effect on signaling. This was determined by performing more than 3,000 assays of TNF production, induced over an extensive range of LPS concentrations in numerous stable clones, since individual clones show considerable background variability in LPS responses. Moreover, because culture conditions can affect the sensitivity of the TNF assay and production of TNF by LPS-stimulated cells, all transfected and control clones were induced and assayed in parallel. […]

Experimental findings from patent US7029861B1, “LPS-response gene compositions and methods” (Board of Regents, The University of Texas System, priority 1998, dated 2006) are described below.

Numbering of substitutions follows the chain as printed. Names may count otherwise. “Also recorded” adds a separate entry of the source.

In the case of “flag-tagged Tlr4^Lps-d cytoplasmic domain construct, residues 630-835 (P712H) (from UniProt Q9QUK6 630-835) (receptor)”, the shift of the LPS EC50 for TNF production in RAW 264.7 clones in [1] turned out to be 39 fold.
The same measure, in the same setting: for “flag-tagged Tlr4^Lps-n cytoplasmic domain construct, residues 630-835 (from UniProt Q9QUK6 630-835) (receptor)” the value was 4 fold.
For “monoclonal antibody M2 (obtained from Sigma)”, the binding sites per cell (binding sites per cell) in test [2] came out at 28100. The molecule also displayed a % saturation of the surface receptor at the highest antibody concentration in test [3] of 56.4%. Also, the Copies/cell is 12000 copies/cell in [4]; 9900 copies/cell in test [5]; 14000 copies/cell in test [6]; 20000 copies/cell in test [7]; 21000 copies/cell in test [8].

B1: Tlr4^Lps-d Cyt. Dom.: membrane-associated Tlr4 cytoplasmic domain with P712H, residues 630–835, with flag peptide, lacking the ectodomain (protein)
chain: TIISVSVVSVIVVSTVAFLIYHFYFHLILIAGCKKYSRGESIYDAFVIYSSQNEDWVRNELVKNLEEGVPRFHLCLHYRDFIHGVAIAANIIQEGFHKSRKVIVVVSRHFIQSRWCIFEYEIAQTWQFLSSRSGIIFIVLEKVEKSLLRQQVELYRLLSRNTYLEWEDNPLGRHIFWRRLKNALLDGKASNPEQTAEEEQETATWT
modifications: left off: small tags and cut ends
notes: membrane-associated Tlr4 cytoplasmic domain with P712H, residues 630–835, with flag peptide, lacking the ectodomain
With B1, the “rightward EC50 shift (inhibition of LPS signaling)” value in the test with RAW 264.7 cells stood at 39 fold.

B2: Tlr4^Lps-n Cyt. Dom.: membrane-associated Tlr4 cytoplasmic domain, normal sequence, residues 630–835, with flag peptide, lacking the ectodomain (protein)
chain: B1 chain with H83P
modifications: left off: small tags and cut ends
For the molecule B2, the “rightward EC50 shift (inhibition of LPS signaling)” value in the test on RAW 264.7 cells is 4 fold.

B3: Tlr4^Lps-n: flag-tagged full-length normal mouse Tlr4, residues 22–835, expressed in RAW 264.7 cells (protein)
chain: PGSLNPCIEVVPNITYQCMDQKLSKVPDDIPSSTKNIDLSFNPLKILKSYSFSNFSELQWLDLSRCEIETIEDKAWHGLHHLSNLILTGNPIQSFSPGSFSGLTSLENLVAVETKLASLESFPIGQLITLKKLNVAHNFIHSCKLPAYFSNLTNLVHVDLSYNYIQTITVNDLQFLRENPQVNLSLDMSLNPIDFIQDQAFQGIKLHELTLRGNFNSSNIMKTCLQNLAGLHVHRLILGEFKDERNLEIFEPSIMEGLCDVTIDEFRLTYTNDFSDDIVKFHCLANVSAMSLAGVSIKYLEDVPKHFKWQSLSIIRCQLKQFPTLDLPFLKSLTLTMNKGSISFKKVALPSLSYLDLSRNALSFSGCCSYSDLGTNSLRHLDLSFNGAIIMSANFMGLEELQHLDFQHSTLKRVTEFSAFLSLEKLLYLDISYTNTKIDFDGIFLGLTSLNTLKMAGNSFKDNTLSNVFANTTNLTFLDLSKCQLEQISWGVFDTLHRLQLLNMSHNNLLFLDSSHYNQLYSLSTLDCSFNRIETSKGILQHFPKSLAFFNLTNNSVACICEHQKFLQWVKEQKQFLVNVEQMTCATPVEMNTSLVLDFNNSTCYMYKTIISVSVVSVIVVSTVAFLIYHFYFHLILIAGCKKYSRGESIYDAFVIYSSQNEDWVRNELVKNLEEGVPRFHLCLHYRDFIPGVAIAANIIQEGFHKSRKVIVVVSRHFIQSRWCIFEYEIAQTWQFLSSRSGIIFIVLEKVEKSLLRQQVELYRLLSRNTYLEWEDNPLGRHIFWRRLKNALLDGKASNPEQTAEEEQETATWT
modifications: left off: small tags and cut ends
notes: flag-tagged full-length normal mouse Tlr4, residues 22–835, expressed in RAW 264.7 cells
Turning to B3, the “leftward shift of the LPS EC50 curve (augmentation of the LPS response)” value in the test on RAW 264.7 cells (composite EC50 analysis) is recorded as 30 fold; in the test with RAW 264.7 cells (composite EC50 analysis, listed as Tlr4), “about 30 fold”.

B4: Tlr4^Lps-d: flag-tagged full-length mouse Tlr4 with P712H mutation, residues 22–835, expressed in RAW 264.7 cells (protein)
chain: B3 chain with P691H
modifications: left off: small tags and cut ends
notes: flag-tagged full-length mouse Tlr4 with P712H mutation, residues 22–835, expressed in RAW 264.7 cells
Regarding B4, the “composite range of responsiveness (mean EC50 of Tlr4^Lps-d transfected clones/mean EC50 of Tlr4^Lps-n transfected clones)” value in the test with RAW 264.7 cells (LPS EC50 measured for each individual clone) was 1120 fold. In the test on RAW 264.7 cells (composite EC50 analysis), the “difference in the mean response at the EC50 point, Tlr4^Lps-n vs Tlr4^Lps-d over-expression” value was 74,000 fold. Besides, the “shift to the right of the LPS EC50 curve (suppression of the LPS response)” value in the test with RAW 264.7 cells (composite EC50 analysis, full-length protein in RAW 264.7, TNF production) is reported as 2600 fold.

B5: Ectodomain: membrane-anchored truncated Tlr4, residues 22–660, lacking the entire cytoplasmic domain (protein)
chain: PGSLNPCIEVVPNITYQCMDQKLSKVPDDIPSSTKNIDLSFNPLKILKSYSFSNFSELQWLDLSRCEIETIEDKAWHGLHHLSNLILTGNPIQSFSPGSFSGLTSLENLVAVETKLASLESFPIGQLITLKKLNVAHNFIHSCKLPAYFSNLTNLVHVDLSYNYIQTITVNDLQFLRENPQVNLSLDMSLNPIDFIQDQAFQGIKLHELTLRGNFNSSNIMKTCLQNLAGLHVHRLILGEFKDERNLEIFEPSIMEGLCDVTIDEFRLTYTNDFSDDIVKFHCLANVSAMSLAGVSIKYLEDVPKHFKWQSLSIIRCQLKQFPTLDLPFLKSLTLTMNKGSISFKKVALPSLSYLDLSRNALSFSGCCSYSDLGTNSLRHLDLSFNGAIIMSANFMGLEELQHLDFQHSTLKRVTEFSAFLSLEKLLYLDISYTNTKIDFDGIFLGLTSLNTLKMAGNSFKDNTLSNVFANTTNLTFLDLSKCQLEQISWGVFDTLHRLQLLNMSHNNLLFLDSSHYNQLYSLSTLDCSFNRIETSKGILQHFPKSLAFFNLTNNSVACICEHQKFLQWVKEQKQFLVNVEQMTCATPVEMNTSLVLDFNNSTCYMYKTIISVSVVSVIVVSTVAFLIYHFYFHLILIA
modifications: left off: small tags and cut ends
notes: membrane-anchored truncated Tlr4, residues 22–660, lacking the entire cytoplasmic domain
With B5, the “effect on LPS signaling (in words)” value with RAW 264.7 cells (listed as Tlr4 ectodomain) is listed as “inhibited the LPS response only weakly, if at all; also recorded: fails to inhibit LPS signaling”; in the test with RAW 264.7 cells (listed as truncated version of the Tlr4 protein), “only a weak inhibitory effect on LPS signaling”.
